This is an account of results in patent publication US20170355757A1 (Regeneron, published 2017).

Assay [1] has as its target T1, Human C5 (human, UniProt P01031 19-1676).
T1 construct: The natural protein has a beta and an alpha chain; also called complement factor 5; complement component 5
Description: SPR, mAb captured by anti-hFc, 37C. A digest of the protocol: (§1)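 Real-time surface plasmon resonance measures C5 binding to Fc-captured anti-C5 antibodies in HEPES-buffered saline, pH 7.4, containing EDTA and surfactant P20.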
(SPR reads the build-up and loss of mass on a sensor chip optically.)

Assay [2] addresses T2, monkey C5-mmh (monkey, UniProt P01031 19-1676 (human entry), limits assumed).
T2 construct: Expressed with a C-terminal myc-myc-hexahistidine tag
T2 chain: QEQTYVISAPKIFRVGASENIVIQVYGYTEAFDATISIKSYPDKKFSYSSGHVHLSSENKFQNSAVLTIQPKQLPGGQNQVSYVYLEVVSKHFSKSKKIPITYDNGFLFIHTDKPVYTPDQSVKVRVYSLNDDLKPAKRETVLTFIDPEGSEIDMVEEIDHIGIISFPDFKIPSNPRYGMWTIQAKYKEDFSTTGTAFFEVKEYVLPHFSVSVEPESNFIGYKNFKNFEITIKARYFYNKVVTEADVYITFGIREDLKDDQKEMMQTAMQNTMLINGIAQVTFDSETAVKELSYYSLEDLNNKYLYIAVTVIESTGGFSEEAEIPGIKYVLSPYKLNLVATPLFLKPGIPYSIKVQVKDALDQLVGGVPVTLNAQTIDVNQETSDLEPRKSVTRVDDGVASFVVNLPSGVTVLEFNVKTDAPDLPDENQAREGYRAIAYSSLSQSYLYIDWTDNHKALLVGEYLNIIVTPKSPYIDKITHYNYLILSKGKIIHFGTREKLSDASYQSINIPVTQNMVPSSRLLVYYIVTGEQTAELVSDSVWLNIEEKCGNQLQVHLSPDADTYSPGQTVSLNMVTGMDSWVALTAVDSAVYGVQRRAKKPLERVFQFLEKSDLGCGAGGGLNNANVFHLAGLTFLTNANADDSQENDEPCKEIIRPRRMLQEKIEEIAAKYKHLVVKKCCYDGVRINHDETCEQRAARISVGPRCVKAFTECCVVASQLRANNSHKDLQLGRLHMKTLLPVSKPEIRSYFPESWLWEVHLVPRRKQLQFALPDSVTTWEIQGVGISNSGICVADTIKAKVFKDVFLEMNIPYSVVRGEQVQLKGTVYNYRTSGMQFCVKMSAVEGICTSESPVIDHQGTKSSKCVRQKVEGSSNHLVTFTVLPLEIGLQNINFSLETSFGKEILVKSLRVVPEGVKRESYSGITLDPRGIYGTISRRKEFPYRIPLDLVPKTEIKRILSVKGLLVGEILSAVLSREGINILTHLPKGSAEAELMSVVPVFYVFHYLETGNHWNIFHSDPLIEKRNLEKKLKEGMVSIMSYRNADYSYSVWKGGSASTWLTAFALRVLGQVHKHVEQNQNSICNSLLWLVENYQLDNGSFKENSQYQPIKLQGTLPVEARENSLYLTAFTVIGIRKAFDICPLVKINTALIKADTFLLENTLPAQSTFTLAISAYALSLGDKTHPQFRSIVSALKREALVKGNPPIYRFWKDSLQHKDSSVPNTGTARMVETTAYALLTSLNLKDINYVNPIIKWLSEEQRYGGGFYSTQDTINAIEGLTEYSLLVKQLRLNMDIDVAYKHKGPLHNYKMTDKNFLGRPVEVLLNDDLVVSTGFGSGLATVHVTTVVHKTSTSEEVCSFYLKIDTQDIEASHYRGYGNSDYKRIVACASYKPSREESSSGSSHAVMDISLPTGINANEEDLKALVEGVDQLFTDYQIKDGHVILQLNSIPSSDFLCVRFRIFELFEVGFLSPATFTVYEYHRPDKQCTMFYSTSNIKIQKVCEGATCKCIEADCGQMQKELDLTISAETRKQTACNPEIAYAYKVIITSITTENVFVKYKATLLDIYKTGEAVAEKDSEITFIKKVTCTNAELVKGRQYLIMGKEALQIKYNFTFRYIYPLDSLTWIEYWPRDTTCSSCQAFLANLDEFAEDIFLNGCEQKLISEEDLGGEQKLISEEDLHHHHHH
In words: SPR, mAb captured by anti-hFc, 25C. A digest of the protocol: as §1

Assay [3] deals with T1, Human C5. In words: SPR, mAb captured by anti-hFc, 25C. A digest of the protocol: as §1
Assay [4] addresses T3, human C5 R885H-mmh (human, UniProt P01031 19-1676).
T3 construct: also called human C5 variant R885H
Description: SPR, mAb captured via anti-hFc, 25C. As to the method:
(§2) Equilibrium dissociation constants (KD values) for C5 binding to purified anti-C5 antibodies were determined using a real-time surface plasmon resonance biosensor assay on a Biacore T200 instrument. The Biacore sensor surface was derivatized by amine coupling with a monoclonal mouse anti-human Fc antibody (GE Healthcare, # BR-1008-39) to capture anti-C5 antibodies expressed with human Fc constant regions. Biacore binding studies were conducted in HBST running buffer (0.01M HEPES pH 7.4, 0.15M NaCl, 3 mM EDTA, 0.05% v/v Surfactant P20).
(§3) Human C5 was obtained from a commercial source (EMD). Other C5 reagents were expressed with a C-terminal myc-myc-hexahistidine tag (subsequently referred to as C5-mmh). […] Association of all the C5 reagents to each of the captured monoclonal antibodies was monitored for 3 minutes and their dissociation in HBST running buffer was monitored for 8 minutes. All the binding kinetics experiments were performed at either 25° C. or 37° C. Kinetic association (kₐ) and dissociation (kd) rate constants were determined by fitting the real-time sensorgrams to a 1:1 binding model using Scrubber 2.0c curve fitting software. Binding dissociation equilibrium constants (KD) and dissociative half-lives (t %) were calculated from the kinetic rate constants as: KD (M)=kd/kₐ and t_{1/2} (min)=In2/(60×kd)

Assay [5] addresses T4, human C5 R885C-mmh (human, UniProt P01031 19-1676).
T4 construct: also called human C5 variant R885C
Description: SPR, mAb captured via anti-hFc, 25C. The method, then:
as §2, §3

Assay [6] has as its target T5, monkey C5-mmh (monkey, UniProt P01031 19-1676 (human entry), limits assumed).
T5 construct: Recombinant monkey C5 with a C-terminal myc-myc-hexahistidine tag
T5 chain: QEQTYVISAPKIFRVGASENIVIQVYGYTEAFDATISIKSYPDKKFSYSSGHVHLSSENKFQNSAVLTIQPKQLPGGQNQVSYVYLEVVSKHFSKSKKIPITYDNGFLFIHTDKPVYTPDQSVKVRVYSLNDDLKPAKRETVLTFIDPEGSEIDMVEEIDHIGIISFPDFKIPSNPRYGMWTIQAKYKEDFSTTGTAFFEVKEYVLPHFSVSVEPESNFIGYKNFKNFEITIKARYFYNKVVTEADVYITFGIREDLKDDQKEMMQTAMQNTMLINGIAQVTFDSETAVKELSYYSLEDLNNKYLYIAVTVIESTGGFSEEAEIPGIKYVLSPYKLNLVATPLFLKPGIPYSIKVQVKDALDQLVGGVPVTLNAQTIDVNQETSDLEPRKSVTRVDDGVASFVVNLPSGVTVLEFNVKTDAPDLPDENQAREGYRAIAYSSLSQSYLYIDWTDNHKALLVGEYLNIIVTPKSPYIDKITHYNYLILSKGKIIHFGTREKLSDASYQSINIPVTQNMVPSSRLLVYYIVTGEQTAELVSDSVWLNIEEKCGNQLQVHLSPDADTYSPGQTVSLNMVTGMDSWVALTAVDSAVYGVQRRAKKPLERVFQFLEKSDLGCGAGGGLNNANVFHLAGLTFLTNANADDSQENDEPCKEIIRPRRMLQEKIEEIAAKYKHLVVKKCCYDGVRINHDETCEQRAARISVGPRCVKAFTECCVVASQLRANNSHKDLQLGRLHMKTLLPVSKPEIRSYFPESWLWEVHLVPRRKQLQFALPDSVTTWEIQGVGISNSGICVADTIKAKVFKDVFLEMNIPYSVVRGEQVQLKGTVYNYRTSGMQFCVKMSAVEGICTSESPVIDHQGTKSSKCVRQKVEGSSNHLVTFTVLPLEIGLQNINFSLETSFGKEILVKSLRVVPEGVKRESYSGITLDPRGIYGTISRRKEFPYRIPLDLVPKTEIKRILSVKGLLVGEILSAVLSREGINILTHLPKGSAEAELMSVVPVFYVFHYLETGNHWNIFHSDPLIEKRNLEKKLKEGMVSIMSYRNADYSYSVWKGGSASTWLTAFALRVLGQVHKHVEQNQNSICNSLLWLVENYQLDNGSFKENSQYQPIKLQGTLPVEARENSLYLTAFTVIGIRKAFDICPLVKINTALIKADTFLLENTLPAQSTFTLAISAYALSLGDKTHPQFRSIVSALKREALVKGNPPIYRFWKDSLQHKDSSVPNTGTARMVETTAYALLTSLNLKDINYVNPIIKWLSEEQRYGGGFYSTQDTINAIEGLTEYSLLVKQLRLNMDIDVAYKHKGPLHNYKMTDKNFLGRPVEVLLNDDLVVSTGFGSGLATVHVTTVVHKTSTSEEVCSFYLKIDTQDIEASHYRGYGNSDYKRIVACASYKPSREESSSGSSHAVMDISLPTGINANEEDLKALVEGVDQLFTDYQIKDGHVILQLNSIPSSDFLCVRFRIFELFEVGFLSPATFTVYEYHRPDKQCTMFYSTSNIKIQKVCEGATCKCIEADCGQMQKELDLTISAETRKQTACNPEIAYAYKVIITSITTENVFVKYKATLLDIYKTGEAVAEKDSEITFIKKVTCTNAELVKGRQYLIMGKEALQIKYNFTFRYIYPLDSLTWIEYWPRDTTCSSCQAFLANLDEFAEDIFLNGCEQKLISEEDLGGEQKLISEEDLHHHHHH
Description: SPR, mAb captured via anti-hFc, 37C. As to the method: as §2, §3

For assay [7], the target named is T3, human C5 R885H-mmh. Description: SPR, mAb captured via anti-hFc, 37C. As to the method:
as §2, §3

Assay [8] deals with T4, human C5 R885C-mmh. In words: SPR, mAb captured via anti-hFc, 37C. As to the method:
as §2, §3

B1: H4H12161P (antibody, human IgG4, V domains shown)
VH: EVQLVESGGDLVQPGGSLRLSCAASGFTFSDHYMDWVRQAPGKGLDWIGRIRNKANAYNTEYAASVRGRFTISRDDSQNLLYLQMNSLKTDDTAVYYCVRVWNYAYFAMDVWGQGTTVTVSS
VL: DIQMTQSPSSLSASVGDRVTITCRSSQNIGIFLNWYQQKPGEAPNLLISAASSLHSGVPSRFSGSGSGTDFTLTIGSLQPEDFATYYCQQTYNTIFTFGPGTKVDIK
For orientation: Kd means the equilibrium constant for the complex coming apart. In general, koff refers to a measure of how fast the partners let go of each other. Broadly, the kon is the second-order rate constant of association. One may read the t½ as the time needed for the level to fall by half in the phase considered. As to B1, in the assay with Human C5 [1], the “100 nM Human C5 Bound (RU)” value came out at 66 RU, the Kd came out at 0.99 nM, the koff was 0.000115 s⁻¹ and the kon came out at 116000 M⁻¹ s⁻¹. The molecule further returned a t½ with Human C5 [1] of 1.68 h. For the same molecule, in the assay with monkey C5-mmh [2], the “100 nM monkey C5-mmh Bound (RU)” value turned out to be 45 RU, the Kd came out at 0.392 nM, the koff came out at 2.48e-05 s⁻¹ and the kon worked out at 63300 M⁻¹ s⁻¹. For the same molecule, the “t1/2” value with monkey C5-mmh [2] was found to be 7.75 h. In addition, in the assay with Human C5 [3], the “100 nM Human C5 Bound (RU)” value is 64 RU, the Kd was found to be 0.17 nM, the koff was 4.37e-05 s⁻¹ and the kon was 258000 M⁻¹ s⁻¹. The same molecule registered a t½ with Human C5 [3] of 4.4 h.

B2: H4H12161P (antibody, human IgG4, V domains shown)
VH: EVQLVESGGDLVQPGGSLRLSCAASGFTFSDHYMDWVRQAPGKGLDWIGRIRNKANAYNTEYAASVRGRFTISRDDSQNLLYLQMNSLKTDDTAVYYCVRVWNYAYFAMDVWGQGTTVTVSS
VL: DIQMTQSPSSLSASVGDRVTITCRSSQNIGIFLNWYQQKPGEAPNLLISAASSLHSGVPSRFSGSGSGTDFTLTIGSLQPEDFATYYCQQTYNTIFTFGPGTKVDIK
notes: Human IgG4 Fc with S108P hinge mutation (H4H)
As for B2, in the assay with human C5 R885H-mmh [4], the “100 nM Human C5 R885H-mmh Bound (RU)” value was 199 RU, the Kd is 0.996 nM, the off-rate constant (koff) stood at 8.32e-05 s⁻¹ and the kon was 83600 M⁻¹ s⁻¹. In the assay with human C5 R885H-mmh [4], this molecule gave a t1/2 of 2.32 h. In the assay with human C5 R885C-mmh [5], the “100 nM Human C5 R885C-mmh Bound (RU)” value was found to be 147 RU; the affinity, expressed as Kd, was 0.672 nM; the koff worked out at 8.71e-05 s⁻¹; the kon was determined as 130000 M⁻¹ s⁻¹. This molecule also registered a t1/2 with human C5 R885C-mmh [5] of 2.22 h. Also, in the assay with monkey C5-mmh [6], the “100 nM monkey C5-mmh Bound (RU)” value worked out at 53 RU, binding was put at a Kd of 5.56 nM, the koff is 0.000745 s⁻¹ and the kon is 134000 M⁻¹ s⁻¹. Besides, in the assay with monkey C5-mmh [6], the t1/2 came out at 0.267 h. Further, in the assay with human C5 R885H-mmh [7], the “100 nM Human C5 R885H-mmh Bound (RU)” value stood at 54 RU, the Kd was 7.84 nM, the koff came to 0.000925 s⁻¹ and the kon amounted to 118000 M⁻¹ s⁻¹. In the assay with human C5 R885H-mmh [7], this molecule displayed a t1/2 of 0.2 h. Also, in the assay with human C5 R885C-mmh [8], the “100 nM Human C5 R885C-mmh Bound (RU)” value turned out to be 49 RU, the Kd turned out to be 8.17 nM, the koff was 0.000901 s⁻¹ and the kon is 110000 M⁻¹ s⁻¹. This molecule also had a t1/2 with human C5 R885C-mmh [8] of 0.217 h.
